Data published in patent publication US20240133890A1.

Target: WSTF (BAZ1B) (UniProt Q9UIG0)
Chain of UniProt Q9UIG0 (Q9UIG0 whole entry): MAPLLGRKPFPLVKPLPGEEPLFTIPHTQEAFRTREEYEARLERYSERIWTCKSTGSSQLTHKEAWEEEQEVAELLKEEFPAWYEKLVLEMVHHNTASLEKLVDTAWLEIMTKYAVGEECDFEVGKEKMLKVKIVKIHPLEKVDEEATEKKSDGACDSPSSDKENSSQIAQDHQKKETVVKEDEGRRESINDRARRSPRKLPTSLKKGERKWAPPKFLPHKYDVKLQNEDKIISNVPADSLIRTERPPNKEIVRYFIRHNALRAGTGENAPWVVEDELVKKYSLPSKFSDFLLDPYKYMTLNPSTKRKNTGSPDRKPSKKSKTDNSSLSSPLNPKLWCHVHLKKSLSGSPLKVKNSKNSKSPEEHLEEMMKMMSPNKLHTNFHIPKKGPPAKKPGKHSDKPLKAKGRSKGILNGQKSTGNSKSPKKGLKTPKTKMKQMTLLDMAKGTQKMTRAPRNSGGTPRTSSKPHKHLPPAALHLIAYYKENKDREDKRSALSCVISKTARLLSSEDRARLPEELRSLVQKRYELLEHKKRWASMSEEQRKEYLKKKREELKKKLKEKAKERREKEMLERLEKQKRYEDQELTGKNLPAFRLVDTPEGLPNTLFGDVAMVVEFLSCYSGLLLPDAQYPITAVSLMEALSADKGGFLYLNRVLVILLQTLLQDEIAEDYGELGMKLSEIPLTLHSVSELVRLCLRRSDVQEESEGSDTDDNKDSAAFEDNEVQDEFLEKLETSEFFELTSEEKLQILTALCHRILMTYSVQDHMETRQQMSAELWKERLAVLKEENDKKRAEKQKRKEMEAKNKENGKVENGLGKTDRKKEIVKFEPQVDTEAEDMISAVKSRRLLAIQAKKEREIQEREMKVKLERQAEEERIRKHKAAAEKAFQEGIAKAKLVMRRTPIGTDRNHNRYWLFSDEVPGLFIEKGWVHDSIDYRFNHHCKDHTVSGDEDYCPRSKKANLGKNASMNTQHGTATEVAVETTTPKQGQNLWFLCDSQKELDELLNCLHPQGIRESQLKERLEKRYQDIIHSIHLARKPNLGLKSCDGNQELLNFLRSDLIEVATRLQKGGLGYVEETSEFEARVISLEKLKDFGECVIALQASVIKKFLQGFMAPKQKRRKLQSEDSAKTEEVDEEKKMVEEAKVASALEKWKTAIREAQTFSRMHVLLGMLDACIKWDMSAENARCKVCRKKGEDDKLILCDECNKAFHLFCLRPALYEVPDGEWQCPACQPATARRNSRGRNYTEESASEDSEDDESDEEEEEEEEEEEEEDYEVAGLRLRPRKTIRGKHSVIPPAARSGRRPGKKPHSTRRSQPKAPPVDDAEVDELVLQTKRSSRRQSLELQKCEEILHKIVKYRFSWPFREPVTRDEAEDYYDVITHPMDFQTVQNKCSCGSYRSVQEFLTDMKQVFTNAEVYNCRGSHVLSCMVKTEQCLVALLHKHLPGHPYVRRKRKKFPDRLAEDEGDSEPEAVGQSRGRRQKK

Substance: JMJD6
- level of WSTF hydroxylation (Western blot with Ab1, MCF-7 nucleoprotein): after JMJD6 knockdown or mutation, the level of WSTF hydroxylation was significantly reduced
